Data: patent US20220242962A1 (APTEVO RESEARCH AND DEVELOPMENT, published 2022)

Columns and labels:
Full-length Human 4-1BB = target: T1, Full-length Human 4-1BB (human, UniProt Q07011 24-255); assay: flow cytometry, Jurkat cells expressing human 4-1BB
T1 construct: also called FOB005; CD137
Experimental: Serial dilutions of ADAPTIR™ constructs were incubated with cells transfected with human or cynomolgus ECD and subsequently labelled with a fluorescently-conjugated goat-α-human Fc secondary antibody. […] (See Example 16.)

Fc gamma receptor RIIIB [1] = target: T2, Fc gamma receptor RIIIB (human, UniProt O75015 17-200); assay: SPR, construct immobilized, receptor injected at 2 uM
T2 construct: soluble SPR analyte

[2] = target: T3, Recombinant FcRn/b2M protein (human, UniProt P55899 24-297; P61769 21-119, limits assumed); assay: SPR pH 6.0, FcRn/b2M immobilized, two-state reaction model
T3 construct: also called hFcRn/b2M; neonatal Fc receptor
Experimental: Recombinant FcRn/b2M protein was generated via transient transfection of HEK-293 cells with a bi-cistronic vector containing the genes for both FcRn and […]. The complex was purified using IMAC chromatography and subsequently buffer exchanged into IMAC elution buffer after verifying purity of the IMAC eluate by analytical SEC. hFcRn/b2M at 10 μg/ml in 10 mM sodium acetate (pH 4.5) was immobilized on a CM5 chip by direct amine coupling chemistry to a level of ˜600 RU. A reference flow cell was left blank.
Different concentrations of the Fc variant protein (5-80 nM by 2-fold dilutions in pH 6.0 running buffer) including running buffer as blank were injected in randomized order at 30 μL/min for 180 seconds followed by a 120 second dissociation period.
Sensorgrams obtained from kinetic SPR measurements were analyzed by the double subtraction method. The signal from the reference flow cell was subtracted from the analyte binding response obtained from flow cell with immobilized ligands. Buffer reference was subtracted from analyte binding responses, and the final double-referenced data were analyzed with Biacore T200 Evaluation software (2.0, GE), globally fitting data to derive kinetic parameters. All sensorgrams were fitted using two-state reaction model, as described in Weirong Wang et al, DrugMetab Dispos.: 39(9): 1469-77 (2011).

Fc gamma receptor RIIIB [3] = target: T2, Fc gamma receptor RIIIB; assay: SPR, Fc captured, receptor as analyte
Experimental: (§1) Fc mutations to be potentially integrated into an ADAPTIR™ bispecific construct were analyzed for binding to the common Fc receptors (human and cyno) and C1Q, which is a component of the complement activation system. SPR experiments were conducted at 25° C. in HBS-EP+ buffer on a Biacore T200 system.
(§2) For these experiments, all four flow cells of a CM5 sensor chip were immobilized with goat F(ab′)2 anti-human Fc (Jackson ImmunoResearch) to a response level of ˜4000 RU. Fc variants and wild type Fc were diluted to 100 nM in HBS-EP+ and captured on the surface of the chip for 120 seconds at a flow rate of 10 μL/min. Fcγ receptors (human and cyno, all purchased from R&D Systems) and complement (C1Q, purchased from Quidel Corporation and Complement Technology, Inc) were diluted in HBS-EP+ and then flowed as analytes at 30 μL/min for 120 seconds followed by a 120 seconds dissociation. Regeneration was achieved by flowing 10 mM glycine pH 1.7 at 30 μL/min for 30 seconds followed by a 60 seconds stabilization. Flow cell 1 was always left as a blank (no captured protein) for purposes of background signal subtraction. Blank-subtracted sensorgrams for each captured Fc variant were inspected for the presence of binding to any of the Fcγ receptor proteins or complement. There are polymorphisms in the Human Fc receptors IIA and RIIIA, so both sequences were tested for binding.

[4] = target: T4, Fc gamma receptor RIIA H167 (human, UniProt P12318 36-218); assay: SPR, Fc captured, receptor as analyte
T4 construct: soluble SPR analyte
T4 sequence (looked up): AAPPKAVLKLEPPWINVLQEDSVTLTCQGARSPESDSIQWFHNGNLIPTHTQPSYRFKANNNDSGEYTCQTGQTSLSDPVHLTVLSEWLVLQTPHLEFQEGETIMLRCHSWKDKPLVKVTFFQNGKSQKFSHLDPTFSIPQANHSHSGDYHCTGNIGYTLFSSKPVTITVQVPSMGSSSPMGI
Experimental: as §1, §2

[5] = target: T5, Fc gamma receptor RIIA R167 (human, UniProt P12318 36-218); assay: SPR, Fc captured, receptor as analyte
T5 construct: soluble SPR analyte
T5 sequence (looked up): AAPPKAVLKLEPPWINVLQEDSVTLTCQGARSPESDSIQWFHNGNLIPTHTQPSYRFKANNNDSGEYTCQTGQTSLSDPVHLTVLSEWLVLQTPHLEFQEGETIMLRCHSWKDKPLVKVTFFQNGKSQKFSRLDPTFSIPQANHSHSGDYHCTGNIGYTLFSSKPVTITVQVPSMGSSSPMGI
Experimental: as §1, §2

Fc gamma receptor RIIB/C = target: T6, Fc gamma receptor RIIB/C (human, UniProt P31994 46-217); assay: SPR, Fc captured, receptor as analyte
T6 construct: soluble SPR analyte
T6 sequence (looked up): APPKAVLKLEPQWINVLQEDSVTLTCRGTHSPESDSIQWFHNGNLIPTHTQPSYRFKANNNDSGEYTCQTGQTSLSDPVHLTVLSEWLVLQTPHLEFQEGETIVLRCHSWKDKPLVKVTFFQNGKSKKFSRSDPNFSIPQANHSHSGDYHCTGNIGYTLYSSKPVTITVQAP
Experimental: as §1, §2

[6] = target: T7, Fc gamma receptor RIIIA V176 (human, UniProt P08637 17-208); assay: SPR, Fc captured, receptor as analyte, relative to wild type Fc
T7 construct: soluble SPR analyte
Experimental: as §1, §2

Fc gamma receptor RI = target: T8, Fc gamma receptor RI (human, UniProt P12314 16-288); assay: as above
T8 construct: also called FcγRI
Experimental: as §1, §2

Cyno RI = target: T9, Cyno RI (cynomolgus monkey, UniProt Q8SPW5 16-292); assay: SPR, Fc captured, receptor as analyte
T9 construct: also called cyno RI receptor
Experimental: as §2

Cyno RIII = target: T10, Cyno RIII (cynomolgus monkey, UniProt Q8SPW2 17-208); assay: SPR, Fc captured, receptor as analyte
T10 construct: extracellular domain
Experimental: as §2

T2 sequence (O75015 17-200): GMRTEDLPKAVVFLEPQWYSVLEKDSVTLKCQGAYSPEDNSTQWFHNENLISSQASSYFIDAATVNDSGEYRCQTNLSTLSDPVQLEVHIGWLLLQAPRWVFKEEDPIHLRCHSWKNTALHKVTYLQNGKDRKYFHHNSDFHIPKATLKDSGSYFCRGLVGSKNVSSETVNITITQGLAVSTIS
T1 sequence (Q07011 24-255): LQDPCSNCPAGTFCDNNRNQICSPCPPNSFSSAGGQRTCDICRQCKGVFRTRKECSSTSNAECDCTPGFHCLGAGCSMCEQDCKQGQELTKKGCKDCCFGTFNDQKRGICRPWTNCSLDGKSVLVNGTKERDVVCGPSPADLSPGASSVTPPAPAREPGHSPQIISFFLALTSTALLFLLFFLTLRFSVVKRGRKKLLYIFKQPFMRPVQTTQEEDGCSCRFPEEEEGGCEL
T7 sequence (P08637 17-208 F176V): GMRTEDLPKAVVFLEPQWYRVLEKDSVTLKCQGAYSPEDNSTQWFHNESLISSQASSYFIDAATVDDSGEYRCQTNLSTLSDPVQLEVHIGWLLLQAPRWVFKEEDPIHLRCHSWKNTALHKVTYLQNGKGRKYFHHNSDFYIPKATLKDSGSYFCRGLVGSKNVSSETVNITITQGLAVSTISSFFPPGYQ
T10 sequence (Q8SPW2 17-208): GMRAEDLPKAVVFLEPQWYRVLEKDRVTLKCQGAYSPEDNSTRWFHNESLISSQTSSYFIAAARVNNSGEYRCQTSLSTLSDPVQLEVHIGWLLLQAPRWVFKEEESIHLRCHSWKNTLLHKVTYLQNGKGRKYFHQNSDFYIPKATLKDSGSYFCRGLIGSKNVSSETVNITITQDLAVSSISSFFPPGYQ
T8 sequence (P12314 16-288 limits assumed): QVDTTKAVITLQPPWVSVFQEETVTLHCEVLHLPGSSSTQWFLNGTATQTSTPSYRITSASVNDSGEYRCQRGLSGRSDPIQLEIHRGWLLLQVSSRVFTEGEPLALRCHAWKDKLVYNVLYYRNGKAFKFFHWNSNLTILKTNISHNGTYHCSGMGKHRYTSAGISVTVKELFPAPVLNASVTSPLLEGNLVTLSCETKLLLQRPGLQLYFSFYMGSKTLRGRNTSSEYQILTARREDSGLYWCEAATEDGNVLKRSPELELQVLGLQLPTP
T3 sequence (P55899 24-297 limits assumed, chain 1 of 2): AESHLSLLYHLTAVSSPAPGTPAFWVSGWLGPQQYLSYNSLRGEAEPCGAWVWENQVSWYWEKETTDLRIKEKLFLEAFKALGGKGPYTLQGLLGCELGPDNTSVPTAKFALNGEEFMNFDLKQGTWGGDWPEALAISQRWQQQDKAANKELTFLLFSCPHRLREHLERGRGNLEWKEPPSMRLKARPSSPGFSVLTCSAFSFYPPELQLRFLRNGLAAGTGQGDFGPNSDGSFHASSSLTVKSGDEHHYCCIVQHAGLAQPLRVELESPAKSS
T3 sequence (P61769 21-119 limits assumed, chain 2 of 2): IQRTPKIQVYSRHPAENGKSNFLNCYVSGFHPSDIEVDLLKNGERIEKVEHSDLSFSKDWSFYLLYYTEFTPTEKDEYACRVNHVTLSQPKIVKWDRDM
T9 sequence (Q8SPW5 entry or part of it limits assumed): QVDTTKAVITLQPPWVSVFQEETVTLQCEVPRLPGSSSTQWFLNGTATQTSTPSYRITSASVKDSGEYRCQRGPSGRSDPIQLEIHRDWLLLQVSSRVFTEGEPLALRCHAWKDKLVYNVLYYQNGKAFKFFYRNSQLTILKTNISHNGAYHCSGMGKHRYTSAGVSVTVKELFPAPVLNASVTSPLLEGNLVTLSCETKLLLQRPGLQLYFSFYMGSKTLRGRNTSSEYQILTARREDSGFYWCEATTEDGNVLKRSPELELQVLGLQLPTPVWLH

B1: FXX01066 (bispecific antibody)
chain: EVQLVQSGAEVKKPGASVKVSCKASGYTFTSYWMNWVRQAPGQGLEWMGNIYPSGGSTNYAQKFQGRVTMTVDTSTSTVYMELSSLRSEDTAVYYCASFSDGYYAYAMDYWGQGTLVTVSSGGGGSGGGGSGGGGSGGGGSEIVMTQSPATLSLSPGERATLSCRASQSVSSYLNWYQQKPGQAPRLLIYYASRRHTGIPARFSGSGSGTDFTLTISSLQPEDFAVYYCQQGYNLPYTFGQGTKVEIKEPKSSDKTHTCPPCPAPPAAAPSVFLFPPKPKDTLMISRTPEVTCVVVDVSHEDPEVKFNWYVDGVEVHNAKTKPREEQYNSTYRVVSVLTVLHQDWLNGKEYKCAVSNKALPAPIEKTISKAKGQPREPQVYTLPPSRDELTKNQVSLTCLVKGFYPSDIAVEWESNGQPENNYKTTPPVLDSDGSFFLYSKLTVDKSRWQQGNVFSCSVMHEALHNHYTQKSLSLSPGGGGSPSSYVLTQPPSVSVAPGQTARITCGGNNIGSKSVNWFQQKPGQAPVLVVYDDSGRPSGIPERFSGSTSGNTATLTISRVEAGDEADYYCQVWDSSSDHVVFGGGTKLTVLGGGGSGGGGSGGGGSGGGGSQVQLVESGGGVVQPGRSLRLSCAASGFTLSYYGMHWVRQAPGKGLEWVAAISHDGSDKYYADSVKGRFTISRDNSKNTLYLQMNSLRAEDTAVYYCSNDQFDPWGQGTLVTVSSR
notes: ADAPTIR scFv-Fc-scFv, anti-4-1BB (VH-VL) N-terminal, anti-OX40 C-terminal, PAA (del) Fc; also called FX01066
**Q.** Which EC50 (Full-length Human 4-1BB) does the source give for B1 here?
**A.** Its EC50 is 0.27 nM.

**Q.** What about the “Max MFI” value (Full-length Human 4-1BB) of the same binder?
**A.** Its value is 4540 MFI.

B2: FXX01115 (bispecific antibody)
chain: EVQLVQSGAEVKKPGASVKVSCKASGYTFTSYWMNWVRQAPGQGLEWMGNIYPSGGSTNYAQKFQGRVTMTVDTSTSTVYMELSSLRSEDTAVYYCASFSDGYYAYAMDYWGQGTLVTVSSGGGGSGGGGSGGGGSGGGGSEIVMTQSPATLSLSPGERATLSCRASQSVSSYLNWYQQKPGQAPRLLIYYASRRHTGIPARFSGSGSGTDFTLTISSLQPEDFAVYYCQQGYNLPYTFGQGTKVEIKEPKSSDKTHTCPPCPAPPAAAPSVFLFPPKPKDTLMISRTPEVTCVVVDVSHEDPEVKFNWYVDGVEVHNAKTKPREEQYNSTYRVVSVLTVLHQDWLNGKEYKCAVSNKALPAPIEKTISKAKGQPREPQVYTLPPSRDELTKNQVSLTCLVKGFYPSDIAVEWESNGQPENNYKTTPPVLDSDGSFFLYSKLTVDKSRWQQGNVFSCSVMHEALHNHYTQKSLSLSPGGGGSPSSYVLTQPPSVSVAPGQTARITCGGNNIGSKSVNWFQQKPGQAPVLVVYDDSGRPSGVPNRFSGSTSGNTATLTISRVEAGDEADYYCQVWDSSSDHVVFGGGTKLTVLGGGGSGGGGSGGGGSGGGGSQVQLVESGGGVVQPGRSLRLSCAASGFTLSYYGMHWVRQAPGKGLEWVAAISHDGSDKYYADSVKGRFTISRDNSKNRLYLQMNSLRAEDTAVYYCSNDQFDPWGQGTLVTVSSR
notes: ADAPTIR anti-4-1BB x anti-OX40, pI variant; PAA (del) Fc
**Q.** With B2 as the binder, how does the “Max RU value during association” value (Fc gamma receptor RIIIB [1]) read?
**A.** The value was 0 RU.

B3: TSC 1005 (other)
chain: EPKSSDKTHTCPPCPAPPVAAPSVFLFPPKPKDTLMISRTPEVTCVVVDVSHEDPEVKFNWYVDGVEVHNAKTKPREEQYNSTYRVVSVLTVLHQDWLNGKEYKCAVSNKALPAPIEKTISKAKGQPREPQVYTLPPSRDELTKNQVSLTCLVKGFYPSDIAVEWESNGQPENNYKTTPPVLDSDGSFFLYSKLTVDKSRWQQGNVFSCSVMHEALHNHYTQKSLSLSPG
notes: IgG1 Fc with E233P, L234V, L235A, deletion of G236, G237A, K322A (EU); also called PVAdel TSC01005
**Q.** With B3 as the binder, how does the Kd [2] read?
**A.** Its Kd is 20 nM.

**Q.** Does B3 bind (Fc gamma receptor RIIIB [3])?
**A.** Result: no binding

**Q.** Does B3 bind [4]?
**A.** Result: no binding

**Q.** Does B3 bind [5]?
**A.** Result: no binding

**Q.** Does B3 bind (Fc gamma receptor RIIB/C)?
**A.** Result: no binding

**Q.** Does B3 bind [6]?
**A.** Result: binds

**Q.** Does B3 bind (Fc gamma receptor RI)?
**A.** Result: binds

**Q.** Does B3 bind (Cyno RI)?
**A.** Result: no binding

**Q.** Does B3 bind (Cyno RIII)?
**A.** Result: no binding
